Experiment [1] has as its target T1, Calreticulin (CRT) (Homo sapiens, UniProt P27797).
T1 sequence (P27797 18-417): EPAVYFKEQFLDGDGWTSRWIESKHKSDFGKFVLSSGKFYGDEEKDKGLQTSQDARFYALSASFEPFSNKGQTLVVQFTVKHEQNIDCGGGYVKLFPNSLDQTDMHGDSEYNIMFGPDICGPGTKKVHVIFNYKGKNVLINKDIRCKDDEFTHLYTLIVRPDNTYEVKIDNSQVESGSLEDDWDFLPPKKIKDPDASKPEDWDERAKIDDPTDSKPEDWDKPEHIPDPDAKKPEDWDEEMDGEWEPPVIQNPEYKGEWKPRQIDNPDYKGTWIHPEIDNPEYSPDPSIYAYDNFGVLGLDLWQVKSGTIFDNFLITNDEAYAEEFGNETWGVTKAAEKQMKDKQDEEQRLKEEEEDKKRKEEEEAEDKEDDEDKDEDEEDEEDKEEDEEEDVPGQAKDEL
The experiment can be described thus: 1D 1H NMR ligand line broadening with CRT; […]-HSQC of ITGA4 peptide shows displacement from CRT. It counts as binding. The arrangement: gene CALR; Human CRT, His-tag fusion protein (pET-19b), expressed in E. coli.

The target of experiment [2] is T1, Calreticulin (CRT). The experiment can be described thus: cell-free plate assay of biotinylated ITGA peptide (KAGFFKR) binding to purified CRT; supported by GST-CRT pull-down. On the set-up: gene CALR.
The target of experiment [3] is T2, CRT (>90% pure) used for surface plasmon resonance (human, UniProt P27797 18-417).
T2 chain: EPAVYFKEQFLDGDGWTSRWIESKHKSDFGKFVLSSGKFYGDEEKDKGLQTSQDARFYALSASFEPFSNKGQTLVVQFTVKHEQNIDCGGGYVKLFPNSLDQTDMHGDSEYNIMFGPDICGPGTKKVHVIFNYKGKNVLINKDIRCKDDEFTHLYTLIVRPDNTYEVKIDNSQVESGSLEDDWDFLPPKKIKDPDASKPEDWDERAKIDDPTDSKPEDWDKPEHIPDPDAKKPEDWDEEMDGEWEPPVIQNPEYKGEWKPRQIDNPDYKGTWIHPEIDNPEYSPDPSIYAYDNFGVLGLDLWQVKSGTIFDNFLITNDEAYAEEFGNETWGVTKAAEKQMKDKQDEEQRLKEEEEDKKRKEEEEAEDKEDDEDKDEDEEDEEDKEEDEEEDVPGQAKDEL
The experiment can be described thus: SPR. (In general: In SPR one partner is held on a chip, and binding of the other changes the refractive index at the surface.)

The target of experiment [4] is T2, CRT (>90% pure) used for surface …. In words: SPR.
The target in experiment [5] is T3, Human CRT protein, His-tag fusion protein (pET-19b) (human, UniProt P27797 18-417).
T3 construct: calreticulin (CRT), human; Surmise: pET-19b adds an N-terminal His tag; also called calreticulin; source: E. coli BL21, purified (Ni-NTA agarose, Superdex 75), >90% pure
T3 sequence (looked up): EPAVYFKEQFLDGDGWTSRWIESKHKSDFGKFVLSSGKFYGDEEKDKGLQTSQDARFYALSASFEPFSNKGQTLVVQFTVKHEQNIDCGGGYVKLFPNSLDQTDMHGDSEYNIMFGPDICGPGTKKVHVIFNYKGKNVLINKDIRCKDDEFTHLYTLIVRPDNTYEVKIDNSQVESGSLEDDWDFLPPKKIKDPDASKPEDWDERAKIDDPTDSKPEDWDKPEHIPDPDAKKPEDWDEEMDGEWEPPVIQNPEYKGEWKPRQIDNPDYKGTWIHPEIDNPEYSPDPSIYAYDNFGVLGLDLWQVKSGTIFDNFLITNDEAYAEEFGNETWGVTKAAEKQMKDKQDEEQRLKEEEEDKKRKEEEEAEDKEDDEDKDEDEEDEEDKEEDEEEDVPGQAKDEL
In words: NMR titration; two-dimensional 15N-HSQC, 4 μM 15N-ITGA4 with 4 μM CRT, 20 mM PB pH 5.5, 10% D2O, 303 K, 700 MHz. The conditions noted are these: both partners purified.

Structures can show the parent of a compound that is named as a salt. Ends that are not written are not given here. * marks the point of attachment. Biotin = O=C1N[C@H]2[C@H](CS[C@H]2CCCCC(=O)*)N1

Consider four molecules from article PMC5958137, “Calreticulin and integrin alpha dissociation induces anti-inflammatory programming in animal models of inflammatory bowel disease” (Nature Communications, 2018).

Take `CC1(C)CC(c2ccccc2N2CCN(CC3CC3)CC2)CC(C)(C)C1` [ER-339093-13, 1-(cyclopropylmethyl)-4-[2-(3,3,5,5-tetramethylcyclohexyl)phenyl] piperazine methanesulfonate]: the “1D 1H NMR ligand line broadening with CRT; 15N-HSQC of ITGA4 peptide shows displ” value on Calreticulin (CRT) [1] is “notable line broadening of the ER-339093-13 signal was observed upon the addition of CRT”.
Usually IC50 stands for the concentration needed to halve the response being measured. A lower IC50 goes with greater potency. At Calreticulin (CRT) [2], `CCCN1CCN(c2ccccc2C2CC(C)(C)CC(C)(C)C2)CC1` [ER-464195-01, 1-propyl-4-[2-(3,3,5,5-tetramethylcyclohexyl)phenyl] piperazine hydrochloride] displayed an IC50 of 170 nM.

B1: N-terminally biotinylated intracellular domain of the ITGA4 peptide (peptide)
peptide: Biotin-KAGFFKRQYKSILQEENRRDSWSYINSKSNDD
In general, koff refers to the rate constant with which the complex falls apart. By Kd is commonly meant the equilibrium constant for the complex coming apart. A higher Kd goes with weaker binding. As to B1, the koff in experiment [3] is 0.00388 s⁻¹. For the same molecule, binding in experiment [4] was put at a Kd of 250 nM.

B2: uniformly 15N-labeled intracellular domain of ITGA4 (domain or fragment)
chain: KAGFFKRQYKSILQEENRRDSWSYINSKSNDD
modifications: also: uniformly 15N-labeled
notes: intracellular domain of integrin α4 (ITGA4), cloned BamHI-EcoRI into pGEX-2T; Surmise: thrombin cleavage of a pGEX-2T fusion leaves a few residues of the vector at the N-terminus; also called 15N-ITGA4; ITGA4 peptide
Take B2: the binding result in experiment [5] is “binds”.
